Experimental data reported in patent US20240132603A1 (HARBOUR BIOMED US, published 2024).

Assays:
cynomolgus monkey CCR8 = target: T1, cynomolgus monkey CCR8 (cynomolgus monkey, UniProt G7NYJ2 1-355); experiment: FACS, CHO-K1-CynoCCR8 cells
T1 construct: whole, on cells; also called CynoCCR8
In short: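 Anti-CCR8 antibodies titrated in 5-fold steps from 200 nM onto 1E6 cells/mL CHO-K1-CynoCCR8 in DPBS/2% FBS, 1 h at 4 °C. Bound antibody detected with 1:1000 secondary antibody, 40 min at 4 °C, then flow cytometry.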

CD147 = target: T2, CD147; experiment: flow cytometry, HEK293-CD147 cells
T2 construct: also called HEK293-CD147

MMP16 [1] = target: T3, MMP16 (UniProt P51512 120-607); experiment: flow cytometry, HEK293-MMP16 cells
T3 construct: whole, on cells; also called HEK293-MMP16
T3 sequence (P51512 120-607): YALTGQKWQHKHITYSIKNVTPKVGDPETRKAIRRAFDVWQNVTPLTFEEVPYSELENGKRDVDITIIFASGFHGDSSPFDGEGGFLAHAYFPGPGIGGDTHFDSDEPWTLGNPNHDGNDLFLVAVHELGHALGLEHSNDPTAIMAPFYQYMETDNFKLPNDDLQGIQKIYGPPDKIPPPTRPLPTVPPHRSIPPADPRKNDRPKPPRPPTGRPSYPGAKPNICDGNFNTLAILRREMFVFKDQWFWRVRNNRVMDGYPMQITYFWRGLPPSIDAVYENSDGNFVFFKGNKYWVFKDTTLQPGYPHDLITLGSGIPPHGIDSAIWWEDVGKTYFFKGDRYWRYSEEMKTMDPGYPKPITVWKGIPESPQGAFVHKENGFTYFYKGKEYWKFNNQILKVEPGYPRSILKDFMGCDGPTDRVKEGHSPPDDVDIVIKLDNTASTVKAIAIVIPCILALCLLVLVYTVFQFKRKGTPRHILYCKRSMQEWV

TSPAN12-FLAG [2] = target: T4, TSPAN12-FLAG (UniProt O95859 1-305); experiment: flow cytometry, transfected HEK293 cells
T4 construct: whole, on cells; order of protein and tag unknown; also called HEK293-TSPAN12; not shown: FLAG tag
T4 sequence (looked up): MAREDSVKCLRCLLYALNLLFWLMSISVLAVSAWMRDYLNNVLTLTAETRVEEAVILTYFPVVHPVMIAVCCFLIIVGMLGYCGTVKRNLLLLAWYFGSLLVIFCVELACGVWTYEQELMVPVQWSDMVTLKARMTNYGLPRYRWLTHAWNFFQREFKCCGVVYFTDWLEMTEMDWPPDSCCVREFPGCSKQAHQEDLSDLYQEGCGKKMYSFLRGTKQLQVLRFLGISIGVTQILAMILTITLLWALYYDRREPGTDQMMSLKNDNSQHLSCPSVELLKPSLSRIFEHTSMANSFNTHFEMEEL
Source text: (§1) After that, HEK293 cells were transfected with commercial MMP16 (protein information can be found under Uniprot P51512), CD40LG (protein information can be found under Uniprot P29965), CD147 (protein information can be found under Uniprot P35612), TSPAN4 (protein information can be found under Uniprot 014817), and TSPAN12 (protein information can be found under Uniprot 095859) plasmids for further verification of the binding of PR005565, PR006275 and PR006276 to these proteins. […] However, the binding values of PR005565, PR006275 and PR006276 to MMP16, CD40LG, CD147, TSPAN4 and TSPAN12 after transfection of HEK293 cells were all consistent with the signal values of HEK293 cells themselves. Thus, PR005565, PR006275 and PR006276 had no non-specific binding to MMP16, CD40LG, CD147, TSPAN4 and TSPAN12 proteins (see Table 50).

TSPAN4-FLAG [3] = target: T5, TSPAN4-FLAG (UniProt O14817 1-238, limits assumed); experiment: flow cytometry, transfected HEK293 cells
T5 construct: whole, on cells; order of protein and tag unknown; also called HEK293-TSPAN4; not shown: FLAG tag
T5 sequence (looked up): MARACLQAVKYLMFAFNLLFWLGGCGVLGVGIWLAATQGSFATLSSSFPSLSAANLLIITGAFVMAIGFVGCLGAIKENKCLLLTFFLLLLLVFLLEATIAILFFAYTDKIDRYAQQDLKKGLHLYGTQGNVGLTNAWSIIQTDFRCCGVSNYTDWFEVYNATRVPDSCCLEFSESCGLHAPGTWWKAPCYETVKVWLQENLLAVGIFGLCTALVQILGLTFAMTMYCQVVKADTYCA
Source text: as §1

MMP16 [4] = target: T3, MMP16; experiment: flow cytometry, transfected HEK293 cells
Source text: as §1

CD40LG = target: T6, CD40LG (UniProt P29965 1-261); experiment: flow cytometry, transfected HEK293 cells
T6 construct: whole, on cells; also called HEK293-CD40LG
T6 sequence (looked up): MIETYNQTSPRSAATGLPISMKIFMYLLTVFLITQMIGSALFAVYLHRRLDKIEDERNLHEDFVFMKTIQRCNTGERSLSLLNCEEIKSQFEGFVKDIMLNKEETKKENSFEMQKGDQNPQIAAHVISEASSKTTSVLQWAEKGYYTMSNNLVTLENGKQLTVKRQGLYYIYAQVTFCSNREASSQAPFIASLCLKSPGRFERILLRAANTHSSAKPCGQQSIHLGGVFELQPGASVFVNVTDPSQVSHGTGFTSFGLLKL
Source text: as §1

TSPAN12-FLAG [5] = target: T4, TSPAN12-FLAG; experiment: flow cytometry, HEK293-TSPAN12 cells
Source text: as §1

human CCR8 = target: T7, human CCR8 (human, UniProt P51685 1-355); experiment: FACS, CHO-K1-hCCR8 cells
T7 construct: whole, on cells; construct used for the overexpressing cell lines is not described; also called hCCR8
T7 sequence (P51685 whole entry): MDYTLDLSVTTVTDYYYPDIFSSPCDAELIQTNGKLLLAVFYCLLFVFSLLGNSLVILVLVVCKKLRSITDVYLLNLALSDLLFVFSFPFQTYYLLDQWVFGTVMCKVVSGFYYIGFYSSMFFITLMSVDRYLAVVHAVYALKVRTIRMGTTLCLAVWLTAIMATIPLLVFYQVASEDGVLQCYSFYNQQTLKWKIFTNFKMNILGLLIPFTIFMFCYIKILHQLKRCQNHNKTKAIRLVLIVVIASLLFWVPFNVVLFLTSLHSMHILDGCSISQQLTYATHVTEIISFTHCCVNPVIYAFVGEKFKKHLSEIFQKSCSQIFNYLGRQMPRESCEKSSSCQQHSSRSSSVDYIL
In short: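 Cells are harvested with pancreatin and brought to 1E6 cells/mL. They then receive anti-CCR8 antibody (5-fold series, top 200 nM, 1 h, 4 °C), washes, secondary antibody (1:1000, 40 min, 4 °C) and FACS analysis.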

TSPAN4-FLAG [6] = target: T5, TSPAN4-FLAG; experiment: flow cytometry, HEK293-TSPAN4 cells

T1 sequence (G7NYJ2 entry or part of it): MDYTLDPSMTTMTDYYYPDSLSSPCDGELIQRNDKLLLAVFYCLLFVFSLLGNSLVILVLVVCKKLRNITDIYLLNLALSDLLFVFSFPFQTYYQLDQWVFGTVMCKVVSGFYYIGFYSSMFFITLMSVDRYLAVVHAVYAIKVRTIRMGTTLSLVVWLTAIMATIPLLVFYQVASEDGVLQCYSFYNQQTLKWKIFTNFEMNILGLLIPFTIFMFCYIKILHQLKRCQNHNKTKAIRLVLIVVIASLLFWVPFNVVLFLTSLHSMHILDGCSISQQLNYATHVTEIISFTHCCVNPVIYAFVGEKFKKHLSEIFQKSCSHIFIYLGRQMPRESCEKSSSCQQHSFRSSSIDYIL

B1: PR005565 (antibody, human IgG1, kappa)
heavy: not shown
light: DIVMTQSPLSLPVTLGQPASISCRSSKSLLHSNAKIYLYWFQQRPGQSPRLLIYRMSNLASGVPDRFSGSGSGTDFTLKISRVEAEDVGVYYCMQHLEYPLTFGQGTKLEIKRTVAAPSVFIFPPSDEQLKSGTASVVCLLNNFYPREAKVQWKVDNALQSGNSQESVTEQDSKDSTYSLSSTLTLSKADYEKHKVYACEVTHQGLSSPVTKSFNRGEC
notes: IgG1 constant region; same VH/VL as PR004666
Binder B1 has an EC50 (cynomolgus monkey CCR8) of 0.76 nM, an MFI (CD147) of 212 and an MFI (MMP16 [1]) of 146. B1: no binding (TSPAN12-FLAG [2]); no binding (TSPAN4-FLAG [3]); no binding (MMP16 [4]). For the same binder, the binding result (CD40LG) was “no binding”, the MFI (TSPAN12-FLAG [5]) was 219 and the EC50 (human CCR8) was 0.42 nM. For the same binder, the MFI (TSPAN4-FLAG [6]) was 207.
